The target in data set [1] is human MLKL kinase-like domain, phosphor-sites' mutant T357A/S358A (179~471 aa), recombinant (human) (UniProt Q8NB16). Nature of the data set: cross-linking; purified recombinant MLKL KLD proteins with 500 uM DSG, 30 min, room temperature; stopped with 100 mM Tris-HCl pH 7.5; SDS-PAGE, Coomassie.
The target in data set [2] is Flag-tagged human MLKL kinase-like domain, phosphomimic mutant T357ES358D, expressed in HEK293T (human). Nature of the data set: cross-linking; whole-cell lysates of HEK293T cells expressing Flag-tagged MLKL KLD proteins (24 h); 500 uM DSG 30 min; SDS-PAGE, western blot anti-Flag. A general note: In western blotting, separated proteins are transferred to a membrane and probed.

Data set [3] deals with Flag-tagged mouse MLKL kinase-like domain, phosphomimic mutant S345D, expressed in HEK293T (mouse) (UniProt Q9D2Y4). The data set is described as above.
Data set [4] deals with the molecule itself. Nature of the data set: SEC; gel filtration of purified recombinant human MLKL KLD proteins on Superdex 75; fractions on SDS-PAGE, Coomassie; standards BSA 67 kDa, ovalbumin 44 kDa, ribonuclease A 14 kDa. A general note: Size exclusion chromatography separates by hydrodynamic size, large species first.
Data set [5] deals with the molecule itself. Description: cross-linking; purified recombinant MLKL KLD proteins with 500 uM DSG, 30 min, room temperature; stopped with 100 mM Tris-HCl pH 7.5; SDS-PAGE, Coomassie.
Data set [6] deals with the molecule itself. Description: SEC; gel filtration of purified His-Sumo tagged human MLKL (126~181 aa) on Superdex 200; fractions on SDS-PAGE, Coomassie.

Usually stoichiometry N stands for a count of units in the complex or per binding partner.

“human MLKL kinase-like domain, phosphor-sites' mutant T357A/S358A (179~471 aa), recombinant (from UniProt Q8NB16 179-471) (domain or fragment)”: the stoichiometry N in data set [1] was 2.
On to “Flag-tagged human MLKL kinase-like domain, phosphomimic mutant T357ES358D, expressed in HEK293T (domain or fragment)”, for which the stoichiometry N in data set [2] was determined as 2.
In data set [3], “Flag-tagged mouse MLKL kinase-like domain, phosphomimic mutant S345D, expressed in HEK293T (from UniProt Q9D2Y4 192-456) (domain or fragment)” yielded a stoichiometry N of 2.

B1: human MLKL kinase-like domain, phosphomimic mutant T357E/S358D (179~471 aa), recombinant (domain or fragment, UniProt Q8NB16 179-471, looked up)
chain: YLPPKCMQEIPQEQIKEIKKEQLSGSPWILLRENEVSTLYKGEYHRAPVAIKVFKKLQAGSIAIVRQTFNKEIKTMKKFESPNILRIFGICIDETVTPPQFSIVMEYCELGTLRELLDREKDLTLGKRMVLVLGAARGLYRLHHSEAPELHGKIRSSNFLVTQGYQVKLAGFELRKTQEDMSLGTTREKTDRVKSTAYLSPQELEDVFYQYDVKSEIYSFGIVLWEIATGDIPFQGCNSEKIRKLVAVKRQQEPLGEDCPSELREIIDECRAHDPSVRPSVDEILKKLSTFSK
notes: Mixed lineage kinase domain-like protein (MLKL), human, kinase-like domain, residues 179-471, T357E/S358D; GST removed with HRV3C protease; residues of the site may remain at the N-terminus; source: Sf9 insect cells (baculovirus), purified (Glutathione Sepharose 4B, on-column HRV3C digestion, Superdex 75 or 200); not shown: GST, N-terminal, cleaved
On to B1, for which the “stoichiometry N” value in data set [4] was found to be 2.

B2: human MLKL kinase-like domain, wild-type (179~471 aa), recombinant (domain or fragment, UniProt Q8NB16 179-471, looked up)
chain: YLPPKCMQEIPQEQIKEIKKEQLSGSPWILLRENEVSTLYKGEYHRAPVAIKVFKKLQAGSIAIVRQTFNKEIKTMKKFESPNILRIFGICIDETVTPPQFSIVMEYCELGTLRELLDREKDLTLGKRMVLVLGAARGLYRLHHSEAPELHGKIRSSNFLVTQGYQVKLAGFELRKTQTSMSLGTTREKTDRVKSTAYLSPQELEDVFYQYDVKSEIYSFGIVLWEIATGDIPFQGCNSEKIRKLVAVKRQQEPLGEDCPSELREIIDECRAHDPSVRPSVDEILKKLSTFSK
notes: Mixed lineage kinase domain-like protein (MLKL), human, kinase-like domain, residues 179-471; residues of the site may remain at the N-terminus; also called MLKL KLD; WT; source: Sf9 insect cells (baculovirus), purified (Glutathione Sepharose 4B, on-column HRV3C digestion, Superdex 75 or 200); not shown: GST, N-terminal, cleaved
In the case of B2, the “stoichiometry N” value in data set [5] was 2.

B3: His-Sumo tagged human MLKL (126~181 aa), internal coiled-coil region, wild-type (domain or fragment, UniProt Q8NB16 126-181, looked up)
chain: PISQGASWAQEDQQDADEDRRAFQMLRRDNEKIEASLRRLEINMKEIKETLRQYLP
notes: Vector PET-SUMO; also called internal coiled-coil in brace region; source: E. coli BL21(DE3), purified (NTA resin, Superdex 200)
B3: the binding result in data set [6] is listed as “binds”.

The values are drawn from article PMC8219780, “The MLKL kinase-like domain dimerization is an indispensable step of mammalian MLKL activation in necroptosis signaling” (Cell Death & Disease, 2021).
